For test [1], the target named is glutathione S-transferase (GST). Put plainly: ITC. In general terms: In ITC the heat of successive injections is recorded.
Test [2] has the same target. As to the kind of experiment: other fluorescence titration.

Where no end group is shown, it is not given here. The star is where a group is joined. Prodan = Prodan fluorogenic core conjugated to Cys (C*)

B1: Prodan-evolver NTVSC*HGF (1) (peptide)
peptide: NTVSC(Prodan)HGF
For the molecule B1, the figures for the Kd in test [1] and in test [2] were 2.4 µM and 5.2 µM, respectively.

The term Kd denotes the equilibrium constant for the complex coming apart. Read a high Kd as weaker binding.

These data come from paper PMC5077683.
